According to US20220220224A1 (Hoffmann-La Roche, published 2022):
Residue numbers refer to the chain shown, from its start. Names and notes keep the numbering of the source.

B1: 15H7 IgG (antibody, V domains shown)
VH: QVQLVQSGAEVKKPGASVKVSCKASGYTFTSYYMHWVRQAPGQGLEWMGIINPSGGSTSYAQKFQGRVTMTRDTSTSTVYMELSSLRSEDTAVYYCARNYYLFSTSFDYWGQGTLVTVSS
VL: QAVVTQEPSLTVSPGGTVTLTCGSSTGAVTTSNYANWVQEKPGQAFRGLIGGTNKRAPGTPARFSGSLLGGKAALTLSGAQPEDEAEYYCALWYSNLWVFGGGTKLTVL
notes: human IgG1
B2: 16A3 IgG (antibody, V domains shown)
VH: B1 VH with L102A, F103G, S104V, S106P
VL: B1 VL
notes: human IgG1
B3: 21D1 IgG (antibody, V domains shown)
VH: B1 VH with L102V, F103G, S104V, T105S, S106P
VL: B1 VL
notes: human IgG1
B4: 15H7 Fab (Fab, V domains shown)
VH: B1 VH
VL: B1 VL
notes: bacterial Fab
B5: 19E5 Fab (Fab, V domains shown)
VH: B1 VH with N99G, Y100E, Y101W, L102R, F103R, S104Y
VL: B1 VL
notes: bacterial Fab
B6: 16D5 IgG variant S35H/wt (HC/LC) (antibody, V domains shown)
VH: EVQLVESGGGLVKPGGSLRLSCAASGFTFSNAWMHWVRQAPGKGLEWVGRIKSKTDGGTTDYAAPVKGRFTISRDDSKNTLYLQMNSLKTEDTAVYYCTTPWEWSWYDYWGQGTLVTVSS
VL: B1 VL
notes: IgG
B7: 16D5 IgG variant G49S/K53A (HC/LC) (antibody, V domains shown)
VH: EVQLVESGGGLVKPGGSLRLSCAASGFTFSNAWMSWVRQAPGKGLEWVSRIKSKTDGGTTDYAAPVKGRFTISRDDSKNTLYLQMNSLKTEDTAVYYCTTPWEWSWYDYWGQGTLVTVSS
VL: B1 VL with A2T, E40Q, F46P, K55A, A80V
notes: IgG
B8: 16D5 IgG variant G49S/S93A (HC/LC) (antibody, V domains shown)
VH: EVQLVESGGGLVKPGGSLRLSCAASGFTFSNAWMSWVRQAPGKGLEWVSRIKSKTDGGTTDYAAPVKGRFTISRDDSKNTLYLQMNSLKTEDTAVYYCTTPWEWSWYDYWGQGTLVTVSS
VL: B1 VL with A2T, E40Q, F46P, A80V, S95A
notes: IgG
B9: 16D5 IgG variant R50S/K53A (HC/LC) (antibody, V domains shown)
VH: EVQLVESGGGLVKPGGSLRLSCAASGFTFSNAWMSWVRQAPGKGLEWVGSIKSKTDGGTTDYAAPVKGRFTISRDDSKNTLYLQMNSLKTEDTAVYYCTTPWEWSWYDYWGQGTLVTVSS
VL: B1 VL with A2T, E40Q, F46P, K55A, A80V
notes: IgG
B10: 16D5 IgG variant R50S/S93A (HC/LC) (antibody, V domains shown)
VH: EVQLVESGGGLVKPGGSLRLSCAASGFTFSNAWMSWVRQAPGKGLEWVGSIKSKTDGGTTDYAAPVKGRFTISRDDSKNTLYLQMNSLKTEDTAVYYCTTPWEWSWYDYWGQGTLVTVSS
VL: B1 VL with A2T, E40Q, F46P, A80V, S95A
notes: IgG
B11: 16D5 IgG variant S35H/K53A (HC/LC) (antibody, V domains shown)
VH: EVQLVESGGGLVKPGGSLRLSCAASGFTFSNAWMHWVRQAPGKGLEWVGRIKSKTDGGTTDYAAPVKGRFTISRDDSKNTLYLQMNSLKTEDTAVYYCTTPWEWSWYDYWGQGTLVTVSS
VL: B1 VL with A2T, E40Q, F46P, K55A, A80V
notes: IgG
B12: 16D5 IgG variant S35H/S93A (HC/LC) (antibody, V domains shown)
VH: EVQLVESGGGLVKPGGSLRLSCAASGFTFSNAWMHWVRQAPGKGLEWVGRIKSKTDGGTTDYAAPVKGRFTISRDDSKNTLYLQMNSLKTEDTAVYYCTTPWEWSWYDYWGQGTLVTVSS
VL: B1 VL with A2T, E40Q, F46P, A80V, S95A
notes: IgG
B13: 16D5 IgG variant W96Y/S93A (HC/LC) (antibody, V domains shown)
VH: not shown
VL: B1 VL with A2T, E40Q, F46P, A80V, S95A
notes: IgG
B14: 16D5 IgG variant W96Y/wt (HC/LC) (antibody, V domains shown)
VH: not shown
VL: B1 VL
notes: IgG
B15: 18D3 IgG (antibody, V domains shown)
VH: QVQLVQSGAEVKKPGASVKVSCKASGYTFTSYYMHWVRQAPGQGLEWMGIINPSGGSTSYAQKFQGRVTMTRDTSTSTVYMELSSLRSEDTAVYYCARNYYTGGSSAFDYWGQGTLVTVS
VL: B1 VL
notes: human IgG1

Tests used:
[1] = biological target: T1, recombinant biotinylated monomeric Fc fusion of human Folate Receptor 2 (hu FolR2 ECD-AcTev-Fcknob-Avi tag … (human, UniProt P0DOX5 223-449 = IgG part, biotin on the C-terminal Avi tag)); assay: SPR Biacore, single injection on immobilized antigen-Fc
T1 construct: also called FolR2-Fc
Procedure: (§1) Binding of FolR1 binders as IgG or in the T-cell bispecific format to different recombinant folate receptors (human FolR1, 2 and 3, murine FolR1 and cynomolgus FolR1; all as Fc fusions) was assessed by surface plasmon resonance (SPR). All SPR experiments were performed on a Biacore T200 at 25° C. with HBS-EP as running buffer (0.01 M HEPES pH 7.4, 0.15 M NaCl, 3 mM EDTA, 0.005% Surfactant P20, Biacore, Freiburg/Germany).
(§2) First the anti-FolR1 IgGs were analyzed by single injections (Table 1) to characterize their crossreactivity (to human, murine and cyno FolR1) and specificity (to human FolR1, human FolR2, human FolR3). Recombinant biotinylated monomeric Fc fusions of human, cynomolgus and murine Folate Receptor 1 (FolR1-Fc) or human Folate Receptor 2 and 3 (FolR2-Fc, FolR3-Fc) were directly coupled on a SA chip using the standard coupling instruction (Biacore, Freiburg/Germany). The immobilization level was about 300-400 RU. The IgGs were injected for 60 seconds at a concentration of 500 nM.

[2] = biological target: T2, recombinant biotinylated monomeric Fc fusion of human Folate Receptor 3 (hu FolR3 ECD-AcTev-Fcknob-Avi tag … (human, UniProt P0DOX5 223-449 = IgG part, biotin on the C-terminal Avi tag)); assay: as above
T2 construct: also called FolR3-Fc
Procedure: as §1, §2

[3] = biological target: T1, recombinant biotinylated monomeric Fc …; assay: SPR ProteOn, Fab analyte on immobilized antigen-Fc
Procedure: (§3) Immobilization of antigens (ligand): Recombinant antigens were diluted with PBST (10 mM phosphate, 150 mM sodium chloride pH 7.4, 0.005% Tween 20) to 10 μg/ml, then injected at 30 μl/minute in vertical orientation. Injection of analytes: For ‘one-shot kinetics’ measurements, injection direction was changed to horizontal orientation, two-fold dilution series of purified Fab (varying concentration ranges) were injected simultaneously along separate channels 1-5, with association times of 200 s, and dissociation times of 600 s. Buffer (PBST) was injected along the sixth channel to provide an “in-line” blank for referencing. Association rate constants (kₒₙ) and dissociation rate constants (koff) were calculated using a simple one-to-one Langmuir binding model in ProteOn Manager v3.1 software by simultaneously fitting the association and dissociation sensorgrams. The equilibrium dissociation constant (KD) was calculated as the ratio koff/kₒₙ.

[4] = biological target: T2, recombinant biotinylated monomeric Fc …; assay: SPR ProteOn, Fab analyte on immobilized antigen-Fc
Procedure: as §3

[5] = biological target: T3, recombinant biotinylated monomeric Fc fusion of cynomolgus Folate Receptor 1 (cy FolR1 ECD-AcTev-Fcknob-Avi … (cynomolgus, UniProt P0DOX5 223-449 = IgG part, biotin on the C-terminal Avi tag)); assay: SPR ProteOn, Fab analyte on immobilized antigen-Fc
T3 construct: also called cyFolR1-Fc; cyno FolR1
Procedure: as §3

[6] = biological target: T4, recombinant biotinylated monomeric Fc fusion of human Folate Receptor 1 (huFolR1 ECD-AcTev-Fcknob-Avi tag … (human, UniProt P0DOX5 223-449 = IgG part, biotin on the C-terminal Avi tag)); assay: SPR Biacore, affinity (monovalent), antibody captured via anti-Fab
T4 construct: also called huFolR1-Fc; human FolR1-Fc
Procedure: The affinity of the interaction between the anti-FolR1 IgGs or the T cell bispecifics and the recombinant folate receptors was determined as described below (Table 42).
For affinity measurement, direct coupling of around 10000 resonance units (RU) of the anti-human Fab specific antibody (Fab capture kit, GE Healthcare) was performed on a CM5 chip at pH 5.0 using the standard amine coupling kit (GE Healthcare). Anti-FolR1 IgGs or T cell bispecifics were captured at 200 nM with a flow rate of 10 ul/min for 40 sec, the reference flow cell was left without capture. Dilution series (12.35 to 3000 nM) of human Folate Receptor 1 Fc fusion were passed on all flow cells at 30 μl/min for 240 sec to record the association phase. The dissociation phase was monitored for 300 s and triggered by switching from the sample solution to HBS-EP. The chip surface was regenerated after every cycle using a double injection of 60 sec 10 mM Glycine-HCl pH 1.5. Bulk refractive index differences were corrected for by subtracting the response obtained on the reference flow cell 1. The affinity constants for the interactions were derived from the rate constants by fitting to a 1:1 Langmuir binding using the Bia Evaluation software (GE Healthcare).

[7] = biological target: T4, recombinant biotinylated monomeric Fc …; assay: SPR Biacore, avidity (bivalent, apparent KD), antigen-Fc on SA chip
Procedure: (§4) The avidity of the interaction between the anti-FolR1 IgGs or T cell bispecifics and the recombinant folate receptors was determined as described below (Table 41).
(§5) Recombinant biotinylated monomeric Fc fusions of human, cynomolgus and murine Folate Receptor 1 (FolR1-Fc) were directly coupled on a SA chip using the standard coupling instruction (Biacore, Freiburg/Germany). The immobilization level was about 300. […] The dissociation was monitored for 240 or 600 seconds. Bulk refractive index differences were corrected for by subtracting the response obtained on reference flow cell immobilized with recombinant biotinylated murine IL2 receptor Fc fusion. The binding curves resulting from the bivalent binding of the IgG or T cell bispecifics were approximated to a 1:1 Langmuir binding (even though it is a 1:2 binding) and fitted with that model to get an apparent KD representing the avidity of the bivalent binding. The apparent avidity constants for the interactions were derived from the rate constants of the fitting using the Bia Evaluation software (GE Healthcare). For low affinity kinetics with association and dissociation phases too fast to be fitted by the 1:1 Langmuir binding model, the steady state analysis model was applied using the Bia Evaluation software (GE Healthcare). The steady state analysis gives the KD of the binding reaction at equilibrium.

[8] = biological target: T3, recombinant biotinylated monomeric Fc …; assay: as above
Procedure: as §4, §5

Binder | binding result [1] | binding result [2] | binding result [3] | binding result [4] | Kd [5] | Kd [6] | koff [6] | kon [6] | Kd [7] | koff [7] | kon [7] | Kd [8] | koff [8] | kon [8]
B1 | no binding (tested: 500 nM) | no binding (tested: 500 nM) | – | – | – | – | – | – | – | – | – | – | – | –
B2 | no binding (tested: 500 nM) | no binding (tested: 500 nM) | – | – | – | – | – | – | – | – | – | – | – | –
B3 | no binding (tested: 500 nM) | no binding (tested: 500 nM) | – | – | – | – | – | – | – | – | – | – | – | –
B4 | – | – | no binding | no binding | 0.0725 µM | – | – | – | – | – | – | – | – | –
B5 | – | – | – | – | 0.276 µM | – | – | – | – | – | – | – | – | –
B6 | – | – | – | – | – | 1.2 µM | 0.0113 s⁻¹ | 8960 M⁻¹ s⁻¹ | 0.04 µM | 0.00568 s⁻¹ | 132000 M⁻¹ s⁻¹ | 0.055 µM | 0.0124 s⁻¹ | 223000 M⁻¹ s⁻¹
B7 | – | – | – | – | – | 1.9 µM | 0.0174 s⁻¹ | 9190 M⁻¹ s⁻¹ | 0.06 µM | 0.0115 s⁻¹ | 190000 M⁻¹ s⁻¹ | 0.08 µM | 0.0328 s⁻¹ | 393000 M⁻¹ s⁻¹
B8 | – | – | – | – | – | 0.76 µM | 0.00799 s⁻¹ | 10500 M⁻¹ s⁻¹ | 0.02 µM | 0.00306 s⁻¹ | 152000 M⁻¹ s⁻¹ | 0.02 µM | 0.00622 s⁻¹ | 358000 M⁻¹ s⁻¹
B9 | – | – | – | – | – | 1.8 µM | 0.0245 s⁻¹ | 13500 M⁻¹ s⁻¹ | 0.06 µM | 0.0197 s⁻¹ | 328000 M⁻¹ s⁻¹ | 0.08 µM | 0.0455 s⁻¹ | 550000 M⁻¹ s⁻¹
B10 | – | – | – | – | – | 0.78 µM | 0.0123 s⁻¹ | 15700 M⁻¹ s⁻¹ | 0.03 µM | 0.00323 s⁻¹ | 125000 M⁻¹ s⁻¹ | 0.02 µM | 0.0078 s⁻¹ | 439000 M⁻¹ s⁻¹
B11 | – | – | – | – | – | – | – | – | 1.4 µM | 0.0291 s⁻¹ | 21000 M⁻¹ s⁻¹ | 1.1 µM | 0.0404 s⁻¹ | 34700 M⁻¹ s⁻¹
B12 | – | – | – | – | – | 1.3 µM | 0.0112 s⁻¹ | 8430 M⁻¹ s⁻¹ | 0.09 µM | 0.022 s⁻¹ | 243000 M⁻¹ s⁻¹ | 0.11 µM | 0.0677 s⁻¹ | 612000 M⁻¹ s⁻¹
B13 | – | – | – | – | – | 0.42 µM | 0.0172 s⁻¹ | 40500 M⁻¹ s⁻¹ | 0.03 µM | 0.0189 s⁻¹ | 655000 M⁻¹ s⁻¹ | 0.03 µM | 0.0174 s⁻¹ | 625000 M⁻¹ s⁻¹
B14 | – | – | – | – | – | 0.55 µM | 0.00544 s⁻¹ | 9950 M⁻¹ s⁻¹ | 0.02 µM | 0.00213 s⁻¹ | 129000 M⁻¹ s⁻¹ | 0.01 µM | 0.00211 s⁻¹ | 173000 M⁻¹ s⁻¹
B15 | no binding (tested: 500 nM) | no binding (tested: 500 nM) | – | – | – | – | – | – | – | – | – | – | – | –
